Source: patent US20120213801

T1: Flag-tagged Twist-1 WT from starved HEK293 cells (not phosphorylated)
T1 sequence: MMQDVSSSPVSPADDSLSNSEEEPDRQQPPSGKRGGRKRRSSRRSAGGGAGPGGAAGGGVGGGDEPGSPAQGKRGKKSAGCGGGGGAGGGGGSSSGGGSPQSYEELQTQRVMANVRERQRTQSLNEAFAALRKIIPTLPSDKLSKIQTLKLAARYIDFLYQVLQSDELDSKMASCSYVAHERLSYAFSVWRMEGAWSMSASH

T2: RKRRSSRRSAGG-S42/S45
T2 chain: RKRRSSRRSAGG

T3: RERQRAQSLNEA-T121A
T3 chain: RERQRAQSLNEA

T4: RERQRTQALNEA-S123A
T4 chain: RERQRTQALNEA

T5: RKRRSSRRAAGG-S45A
T5 chain: RKRRSSRRAAGG

T6: GST-Twist-1 (full-length, substrate of the in vitro kinase assay)
T6 chain: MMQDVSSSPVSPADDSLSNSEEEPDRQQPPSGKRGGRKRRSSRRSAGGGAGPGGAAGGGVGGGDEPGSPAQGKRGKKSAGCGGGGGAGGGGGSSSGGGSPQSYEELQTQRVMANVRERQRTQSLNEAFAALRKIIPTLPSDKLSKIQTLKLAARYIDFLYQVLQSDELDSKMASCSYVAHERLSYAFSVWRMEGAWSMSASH

T7: RERQRTQSLNEA-T121/5123
T7 chain: RERQRTQSLNEA

T8: RKRRSARRSAGG-S42A
T8 chain: RKRRSARRSAGG

B1: activated recombinant PKBβ (protein)
chain: KVTMNDFDYLKLLGKGTFGKVILVREKATGRYYAMKILRKEVIIAKDEVAHTVTESRVLQNTRHPFLTALKYAFQTHDRLCFVMEYANGGELFFHLSRERVFTEERARFYGAEIVSALEYLHSRDVVYRDIKLENLMLDKDGHIKITDFGLCKEGISDGATMKTFCGTPEYLAPEVLEDNDYGRAVDWWGLGVVMYEMMCGRLPFYNQDHERLFELILMEEIRFPRTLSPEAKSLLAGLLKKDPKQRLGGGPSDAKEVMEHRFFLSINWQDVVQKKLLPPFKPQVTSEVDTRYFDDEFTAQSITITPPDRYDSLGLLELDQRTHFPQFSYSASIRE

Legend:
[1] = test system: T1, Flag-tagged Twist-1 WT from starved HEK293 cells (not phosphorylated)
RKRRSSRRSAGG-S42/S45 = target: T2, RKRRSSRRSAGG-S42/S45
RERQRAQSLNEA-T121A = target: T3, RERQRAQSLNEA-T121A
RERQRTQALNEA-S123A = target: T4, RERQRTQALNEA-S123A
RKRRSSRRAAGG-S45A = target: T5, RKRRSSRRAAGG-S45A
[2] = target: T6, GST-Twist-1 (full-length, substrate of …)
RERQRTQSLNEA-T121/5123 = target: T7, RERQRTQSLNEA-T121/5123
RKRRSARRSAGG-S42A = target: T8, RKRRSARRSAGG-S42A

Molecule	Twist-1 S42 phosphorylation after serum stimulation (Western blot; shRNA against PKB) [1]	phosphorylation of synthetic peptide (in vitro kinase assay, 32P-ATP, scintillation counting); parent peptide, phosphorylated by implication (RKRRSSRRSAGG-S42/S45)	phosphorylation of synthetic peptide (in vitro kinase assay, 32P-ATP, scintillation counting); no such loss, by implication (RERQRAQSLNEA-T121A)	phosphorylation of synthetic peptide (in vitro kinase assay, 32P-ATP, scintillation counting); almost complete loss (RERQRTQALNEA-S123A)	phosphorylation of synthetic peptide (in vitro kinase assay, 32P-ATP, scintillation counting); no such loss, by implication (RKRRSSRRAAGG-S45A)	in vitro kinase assays followed by mass spectrometry (MS) analysis [2]	phosphorylation of synthetic peptide (in vitro kinase assay, 32P-ATP, scintillation counting); parent peptide, phosphorylated by implication (RERQRTQSLNEA-T121/5123)	phosphorylation of synthetic peptide (in vitro kinase assay, 32P-ATP, scintillation counting); almost complete loss (RKRRSARRSAGG-S42A)
endogenous PKB kinase of HEK293 cells	Twist-1 S42 phosphorylation was not induced after serum stimulation of cells with a low PKB content							
B1		Only substitution of serine to alanine at positions 42 and 123 resulted in almost complete loss of phosphorylation of the corresponding peptide by PKB	Only substitution of serine to alanine at positions 42 and 123 resulted in almost complete loss of phosphorylation of the corresponding peptide by PKB	Only substitution of serine to alanine at positions 42 and 123 resulted in almost complete loss of phosphorylation of the corresponding peptide by PKB	Only substitution of serine to alanine at positions 42 and 123 resulted in almost complete loss of phosphorylation of the corresponding peptide by PKB	confirmed that PKB phosphorylates Twist-1 in vitro on two residues S42 and S123	Only substitution of serine to alanine at positions 42 and 123 resulted in almost complete loss of phosphorylation of the corresponding peptide by PKB	Only substitution of serine to alanine at positions 42 and 123 resulted in almost complete loss of phosphorylation of the corresponding peptide by PKB
